Measurements taken from patent publication US20030220482A1 (published 2003).

How the values were obtained:
CCR5 chemokine receptor = target: T1, CCR5 chemokine receptor (UniProt P51681 1-352, limits assumed); test: competitive binding with radiolabeled MIP-1β on CCR5-transfected 293 cells
T1 construct: whole, on cells

CXCR4 chemokine receptor [1] = target: T2, CXCR4 chemokine receptor (human, UniProt P61073 1-352); test: ^125I-SDF-1α competitive binding on CEM-T4 cells
T2 construct: whole, on cells
Experimental: CEM-T4 cells were harvested and washed twice with PBS. […] The incubation was terminated by separating the cells from the binding buffer by centrifugation and washing once with 500 μl of cold binding buffer. Bound ligands were quantitated by counting γ emissions.

CXCR4 chemokine receptor [2] = target: T2, CXCR4 chemokine receptor; test: control in ^125I-SDF-1α competitive binding on CEM-T4 cells (FIG. 1)

T2 sequence (P61073 whole entry): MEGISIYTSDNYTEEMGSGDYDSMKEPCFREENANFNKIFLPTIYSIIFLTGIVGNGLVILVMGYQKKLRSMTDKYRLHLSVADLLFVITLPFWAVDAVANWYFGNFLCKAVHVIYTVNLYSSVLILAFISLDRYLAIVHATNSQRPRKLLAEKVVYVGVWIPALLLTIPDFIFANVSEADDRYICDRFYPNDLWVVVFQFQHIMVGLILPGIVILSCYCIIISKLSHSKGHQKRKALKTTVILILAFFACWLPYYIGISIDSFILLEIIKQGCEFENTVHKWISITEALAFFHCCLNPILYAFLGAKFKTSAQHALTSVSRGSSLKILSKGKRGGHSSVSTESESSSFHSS
T1 sequence (P51681 whole entry): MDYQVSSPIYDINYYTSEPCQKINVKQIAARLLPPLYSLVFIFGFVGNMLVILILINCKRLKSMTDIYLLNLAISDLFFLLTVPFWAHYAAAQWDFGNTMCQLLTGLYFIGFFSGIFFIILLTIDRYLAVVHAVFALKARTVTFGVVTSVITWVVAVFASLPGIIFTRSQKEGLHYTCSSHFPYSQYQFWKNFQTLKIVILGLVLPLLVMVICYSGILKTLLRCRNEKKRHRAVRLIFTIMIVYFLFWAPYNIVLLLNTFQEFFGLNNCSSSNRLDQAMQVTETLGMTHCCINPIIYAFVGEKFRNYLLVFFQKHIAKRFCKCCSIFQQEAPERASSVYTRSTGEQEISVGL

Binder | binding result (CCR5 chemokine receptor) | binding result (CXCR4 chemokine receptor [1]) | binding result (CXCR4 chemokine receptor [2])
LGASWHRPDK [V3 peptide (vMIP-II, 1-10)] | no binding | binds | –
viral Macrophage Inflammatory Protein-II (vMIP-II) (ligand, also called native vMIP-II) LGASWHRPDKCCLGYQKRPLPQVLLSSWYPTSQLCSKPGVIFLTKRGRQVCADKSKDWVKKLMQQLPVTAR | – | – | binds
